Test results from the RNAGym collection of RNA variant scans (doi:10.1093/molbev/msab373).

B1: Azoarcus group I ribozyme (parent)
chain: GUGCCUUGCGCCGGGAAACCACGCAAGGGAUGGUGUCAAAUUCGGCGAAACCUAAGCGCCCGCCCGGGCGUAUGGCAACGCCGAGCCAAGCUUCGGCGCCUGCGCCGAUGAAGGUGUAGAGACUAGACGGCACCCACCUAAGGCAAACGCUAUGGUGAAGGCAUAGUCCAGGGAGUGGCGAAAGUCACACAAACCGG

Variants of: B1
Test: reverse-splicing fitness (ratio to wild type); higher = more active; in vitro selection; Mg2+ level not given
In short: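 An in vitro group I ribozyme library with randomized positions was T7-transcribed and gel-purified. In triplicate, 10 pmol RNA in EPPS pH 7.5 was reacted with 50 pmoles of a 30-nt RNA substrate for 1 h at 37 °C across several added MgCl2 levels (1–48 mM), then stopped with EDTA. Products were reverse transcribed from a substrate-complementary primer, PCR-amplified and sequenced (HiSeq 4000). Fitness is a variant's read proportion after selection over that before, normalised to wild type.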

Variant | reverse-splicing fitness
C82G A111G A145U C150G C169G U176G | 0.00579
C82G A111G A145U C150G C169G U176C | 0.00969
C82G A111U A120C A145G C150A U176A | 0.011
C82G A111U A120C A145G C150A U176C | 0.0228
C82G A111U A120C A145G C150A U176G | 0.0103
C82G A111G C150G C169U U176C | 0.0165
C82G A111G C150G C169U U176A | 0.00973
C82G A111G C150G C169U U176G | 0.008
C82G A111G A145U C150U | 0.261
C82G A111G A145U C150G | 0.0338
C82G A111G A145U C150A | 0.0314
C82G A111G A145U C150G C169U | 0.00934
C82G A111G A145U C150G C169A | 0.0092
C82G A111G A145U C150G C169G | 0.00774
C82G A111U A120C A145C C150U C169G | 0.00854
C82G A111U A120C A145C C150U C169A | 0.00911
C82G A111U A120C A145C C150U C169U | 0.0113
C82G A111U A120C A145C U176C | 0.0234
C82G A111U A120C A145C U176G | 0.00674
C82G A111U A120C A145C U176A | 0.0155
C82G A111G C150A C169G | 0.0109

Variant | reverse-splicing fitness
C82G A111G C150A C169A | 0.0122
C82G A111G C150A C169U | 0.0115
C82G A111G C150G C169A U176G | 0.00786
C82G A111G C150G C169A U176A | 0.014
C82G A111G C150G C169A U176C | 0.0166
C82G A111G A145U C169A | 0.00634
C82G A111G A145U C169U | 0.0127
C82G A111G A145U C169G | 0.0101
C82G A111U A120C A145C C150A C169G U176C | 0.0279
C82G A111U A120C A145C C150A C169G U176A | 0.0314
C82G A111U A120C A145C C150A C169G U176G | 0.00687
C82G A111G A145U C150A C169G | 0.00845
C82G A111G A145U C150A C169A | 0.00827
C82G A111G A145U C150A C169U | 0.00982
C82G A111G A145U C150A C169G U176C | 0.0146
C82G A111G A145U C150A C169G U176G | 0.00554
C82G A111G A145U C150A C169G U176A | 0.0149
C82G A111G A145U | 0.454
C82G A111U A120C A145U C150G C169G U176G | 0.00592
C82G A111U A120C A145U C150G C169G U176A | 0.00838
C82G A111U A120C A145U C150G C169G U176C | 0.007

Variant | reverse-splicing fitness
C82G A111G C150A C169A U176A | 0.0211
C82G A111G C150A C169A U176G | 0.00701
C82G A111G C150A C169A U176C | 0.0224
C82G A111G A145U C169U U176C | 0.0127
C82G A111G A145U C169U U176A | 0.0142
C82G A111G A145U C169U U176G | 0.00489
C82G A111U A120C A145G C150U C169G | 0.00889
C82G A111U A120C A145G C150U C169U | 0.0134
C82G A111U A120C A145G C150U C169A | 0.0111
C82G A111U A120C A145U C150A | 0.0104
C82G A111U A120C A145U C150U | 0.0337
C82G A111U A120C A145U C150G | 0.0103
C82G A111G C150A U176A | 0.0337
C82G A111G C150A U176C | 0.0385
C82G A111G C150A U176G | 0.0174
C82G A111G C150A C169U U176A | 0.0165
C82G A111G C150A C169U U176C | 0.0146
C82G A111G C150A C169U U176G | 0.00706
C82G A111U A120C A145G C169U U176C | 0.0156
C82G A111U A120C A145G C169U U176G | 0.00528
C82G A111U A120C A145G C169U U176A | 0.0138

Variant | reverse-splicing fitness
C82G A111U A120C A145G C150G C169G | 0.00753
C82G A111U A120C A145G C150G C169U | 0.0106
C82G A111U A120C A145G C150G C169A | 0.00998
C82G A111U A120C A145C C169G U176A | 0.0301
C82G A111U A120C A145C C169G U176G | 0.00667
C82G A111U A120C A145C C169G U176C | 0.0236
C82G A111U A120C A145U C150U C169A | 0.0102
C82G A111U A120C A145U C150U C169U | 0.0129
C82G A111U A120C A145U C150U C169G | 0.00939
C82G A111G A145G C150U C169A U176C | 0.0189
C82G A111G A145G C150U C169A U176A | 0.0171
C82G A111G A145G C150U C169A U176G | 0.00698
C82G A111U A120C A145C C150U C169G U176A | 0.0279
C82G A111U A120C A145C C150U C169G U176G | 0.00776
C82G A111U A120C A145C C150U C169G U176C | 0.0221
C82G A111G C169U U176A | 0.0155
C82G A111G C169U U176C | 0.0177
C82G A111G C169U U176G | 0.00625
C82G A111G C169A | 0.00879
C82G A111G C169U | 0.0143
C82G A111G C169G | 0.00859
